{"source": "patent US20250197855A1", "about": "(ALNYLAM PHARMACEUTICALS, published 2025)", "binders": {"B1": {"name": "apolipoprotein E (mouse, in APPPS1-21 and WT mouse brain cortex sections) (other, UniProt P08226 19-311, looked up)", "chain": "EGEPEVTDQLEWQSNQPWEQALNRFWDYLRWVQTLSDQVQEELQSSQVTQELTALMEDTMTEVKAYKKELEEQLGPVAEETRARLGKEVQAAQARLGADMEDLRNRLGQYRNEVHTMLGQSTEEIRARLSTHLRKMRKRLMRDAEDLQKRLAVYKAGAREGAERGVSAIRERLGPLVEQGRQRTANLGAGAAQPLRDRAQAFGDRIRGRLEEVGNQARDRLEEVREHMEEVRSKMEEQTQQIRLQAEIFQARLKGWFEPIVEDMHRQWANLMEKIQASVATNPIITPVAQENQ", "notes": "Detected with rabbit anti-mouse ApoE (ab183597); also called ApoE"}}, "key": {"[1]": {"target": "T1, Aβ in APPPS1-21 mouse brain (from the human APP transgene bearing the Swedish mutation) (human (transgene in mouse), UniProt P05067 672-713)", "T1 construct": "also called methoxy-X04+ Aβ plaque", "T1 sequence (P05067 672-713 limits assumed, change not shown)": "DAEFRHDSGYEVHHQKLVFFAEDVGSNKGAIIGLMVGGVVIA", "test": "proximity ligation assay (PLA) on APPPS1-21 mouse brain sections"}, "[2]": {"target": "T2, C1q (mouse, in APPPS1-21 and WT mouse brain cortex sections) (mouse, UniProt P98086 23-245; P14106 26-253; Q02105 30-246)", "T2 construct": "Endogenous tissue protein detected with mouse anti-C1q (HM1096BT, Hycult)", "T2 sequence (P98086 23-245 limits assumed, chain 1 of 3)": "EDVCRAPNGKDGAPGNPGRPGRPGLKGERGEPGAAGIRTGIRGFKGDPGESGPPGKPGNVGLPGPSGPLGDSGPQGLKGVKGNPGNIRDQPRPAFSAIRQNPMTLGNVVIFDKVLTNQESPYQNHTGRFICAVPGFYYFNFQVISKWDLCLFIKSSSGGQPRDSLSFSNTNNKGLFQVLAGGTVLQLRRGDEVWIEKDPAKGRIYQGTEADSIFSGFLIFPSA", "T2 sequence (P14106 26-253 limits assumed, chain 2 of 3)": "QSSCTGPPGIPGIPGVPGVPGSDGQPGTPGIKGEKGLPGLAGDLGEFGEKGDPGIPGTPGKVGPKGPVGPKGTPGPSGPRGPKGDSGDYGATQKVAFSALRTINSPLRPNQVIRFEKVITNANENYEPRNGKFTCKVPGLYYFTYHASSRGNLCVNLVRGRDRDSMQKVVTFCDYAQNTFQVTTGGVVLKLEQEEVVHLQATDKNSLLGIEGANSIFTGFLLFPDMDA", "T2 sequence (Q02105 30-246 limits assumed, chain 3 of 3)": "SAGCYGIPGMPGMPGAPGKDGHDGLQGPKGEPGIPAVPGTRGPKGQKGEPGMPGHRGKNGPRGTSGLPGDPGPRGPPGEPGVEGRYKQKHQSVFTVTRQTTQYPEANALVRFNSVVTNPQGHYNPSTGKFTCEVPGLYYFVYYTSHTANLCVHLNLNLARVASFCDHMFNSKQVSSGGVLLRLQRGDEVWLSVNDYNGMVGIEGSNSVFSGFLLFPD", "test": "proximity ligation assay (Duolink PLA) on brain cortex sections of 16 weeks old APPPS1-21 mice", "method": "Protein-protein binding ex vivo was performed by Duolink® PLA kit (DUO92101 SIGMA).\nPLA signal was detected by Duolink® PLA kit according to manufacturer's protocol. Leica confocal microscope (SP8, Leica, Germany) equipped with a 100× oil objective (NA 1.4) were used for image. 6 fields per each sample were recorded, 3D reconstructions and the number of PLA signals per volume were performed using LAS-X software package (Leica, v1.2, Germany).\nAPPPS1-21 mice were treated with the liver-specific C5 siRNA AD-61679."}}, "data": [{"binder": "B1", "values": [{"measurement": "binding result", "setting": "[1]", "result": "binds"}, {"measurement": "binding result", "setting": "[2]", "result": "binds"}]}]}
